B1: Flag-tagged WT STAT5 (mouse STAT5a) [mouse] / DUSP4-PD (phosphatase-dead mutant DUSP4, [mouse] (parent)
chain 1: MAGWIQAQQLQGDALRQMQVLYGQHFPIEVRHYLAQWIESQPWDAIDLDNPQDRGQATQLLEGLVQELQKKAEHQVGEDGFLLKIKLGHYATQLQNTYDRCPMELVRCIRHILYNEQRLVREANNCSSPAGVLVDAMSQKHLQINQRFEELRLITQDTENELKKLQQTQEYFIIQYQESLRIQAQFAQLGQLNPQERMSRETALQQKQVSLETWLQREAQTLQQYRVELAEKHQKTLQLLRKQQTIILDDELIQWKRRQQLAGNGGPPEGSLDVLQSWCEKLAEIIWQNRQQIRRAEHLCQQLPIPGPVEEMLAEVNATITDIISALVTSTFIIEKQPPQVLKTQTKFAATVRLLVGGKLNVHMNPPQVKATIISEQQAKSLLKNENTRNECSGEILNNCCVMEYHQATGTLSAHFRNMSLKRIKRADRRGAESVTEEKFTVLFESQFSVGSNELVFQVKTLSLPVVVIVHGSQDHNATATVLWDNAFAEPGRVPFAVPDKVLWPQLCEALNMKFKAEVQSNRGLTKENLVFLAQKLFNISSNHLEDYNSMSVSWSQFNRENLPGWNYTFWQWFDGVMEVLKKHHKPHWNDGAILGFVNKQQAHDLLINKPDGTFLLRFSDSEIGGITIAWKFDSPDRNLWNLKPFTTRDFSIRSLADRLGDLNYLIYVFPDRPKDEVFAKYYTPVLAKAVDGYVKPQIKQVVPEFVNASTDAGASATYMDQAPSPVVCPQPHYNMYPPNPDPVLDQDGEFDLDESMDVARHVEELLRRPMDSLDARLSPPAGLFTSARSSLS
chain 2: MVTMEELREMDCSVLKRLMNRDENGGGGSAGGNGSGSHGALGLLSGGKCLLLDCRPFLAHSAGYIRGSVNVRCNTIVRRRAKGSVSLEQILPAEEEVRARLRSGLYSAVIVYDERSPRAESLREDSTVSLVVQALRRNAERTDICLLKGGYERFSSEYPEFCSKTKALAAIPPPVPPSTNESLDLGCSSCGTPLHDQGGPVEILPFLYLGSAYHAARRDMLDALGITALLNVSSDCPNHFEGHYQYKCIPVEDNHKADISSWFMEAIEYIDAVKDCRGRVLVHSQAGISRSATICLAYLMMKKRVRLEEAFEFVKQRRSIISPNFSFMGQLLQFESQVLTTSCAAEAASPSGPLRERGKATPTPTSQFVFSFPVSVGVHAAPSNLPYLHSPITTSPSC

Variants of: B1
Assay: co-IP (anti-Flag IP, IB DUSP4) with band intensity quantification
Conditions: HEK-293T cells co-transfected for 24 hr, parent: 3.76e+04

Row | response (band intensity (arbitrary units)) | Variant
1 | 44800 | chain 1 Y694E
2 | 48300 | chain 1 Y694D
3 | 43700 | chain 1 Y694F
